Experimental data published in US20240084017A1 (ASCENDO BIOTECHNOLOGY, published 2024).

Tests used:
[1] = molecular target: T1, mouse Mac-1 (mouse, UniProt P05555 17-1153; P11835 24-771); experiment: flow cytometry, Raw 264.7 cells
T1 construct: whole, on cells; also called Raw264.7

[2] = molecular target: T2, human Mac-1 (integrin αMβ2, CD11b/CD18) (human, UniProt P11215 17-1152; P05107 23-769); experiment: flow cytometry, HEK293/Mac-1 cells (clone 1-4), PBS (Mock)
Experimental: (§1) The HEK293/Mac-1 cells (clone1-4) were counted and washed twice with staining buffer (PBS containing 1% FBS, and 0.1% sodium azide). Cells were adjusted at a concentration of 1×10⁵ cells/ml in staining buffer and treated with/without 0.25 mM MnCl₂ (Sigma). Cells were treated with anti-Mac-1 antibodies and fluorescent conjugated anti-human IgG4 antibodies and incubated for 15 mins. After washing with the staining buffer, the cells were analyzed by flow cytometry. In some examples, these cells were treated with the antibodies (ICRF44, KIM127, m24, or isotype control) in the presence or absence 10 μg/ml anti-Mac-1 antibodies. The cells were then incubated at 37° C. for 30 min. After washing with the staining buffer, the cells were analyzed by flow cytometry.
(§2) TABLE II The anti-Mac-1 antibodies selectively bind to different statuses of human Mac-1. HEK293/Mac-1 cells (clone1-4) were incubated in PBS (Mock), or PBS/MnCl₂ (Mn²⁺). Binding of isotype control IgG, the CD11b specific mAb (ICRF44), the CD11b activation-sensing mAb (CBRM1/5), or the screened anti-Mac-1 antibody was detected using flow cytometry.

[3] = molecular target: T2, human Mac-1 (integrin αMβ2, CD11b/CD18); experiment: flow cytometry, HEK293/Mac-1 cells (clone 1-4), PBS/MnCl2 (Mn2+)
Experimental: as §1, §2

[4] = molecular target: T2, human Mac-1 (integrin αMβ2, CD11b/CD18); experiment: flow cytometry, HEK293/Mac-1 cells; MFI in PBS over MFI in PBS/MnCl2
Experimental: as §1, §2

[5] = molecular target: T2, human Mac-1 (integrin αMβ2, CD11b/CD18); experiment: flow cytometry, HEK293/Mac-1 cells, PBS (Mock), 10 µg/ml of this antibody; binding of reporter mAb m24 read
Experimental: as §1
(§3) TABLE III The anti-Mac-1 antibodies can serve as agonist to enhance the conformational change of Mac-1. HEK293/Mac-1 cells (clone1-4) were incubated with 10 μg/ml anti-Mac-1 antibodies under the PBS (Mock) condition. Binding of KIM127 or m24 was detected using flow cytometry.

[6] = molecular target: T2, human Mac-1 (integrin αMβ2, CD11b/CD18); experiment: flow cytometry, HEK293/Mac-1 cells, PBS (Mock), 10 µg/ml of this antibody; binding of reporter mAb KIM127 read
Experimental: as §1, §3

[7] = molecular target: T2, human Mac-1 (integrin αMβ2, CD11b/CD18); experiment: flow cytometry, HEK293/Mac-1 cells, PBS/MnCl2 (Mn2+), 10 µg/ml of this antibody; binding of reporter mAb m24 read
Experimental: as §1
(§4) TABLE IV The anti-Mac-1 antibody can serve as an antagonist to reduce the conformational change of Mac-1. HEK293/Mac-1 cells (clone1-4) were incubated with 10 μg/ml anti-Mac-1 antibodies under the PBS/MnCl₂ (Mn²⁺) condition. Binding of KIM127 or m24 was detected using flow cytometry.

[8] = molecular target: T2, human Mac-1 (integrin αMβ2, CD11b/CD18); experiment: flow cytometry, HEK293/Mac-1 cells, PBS/MnCl2 (Mn2+), 10 µg/ml of this antibody; binding of reporter mAb KIM127 read
Experimental: as §1, §4

T1 sequence (P05555 17-1153, chain 1 of 2): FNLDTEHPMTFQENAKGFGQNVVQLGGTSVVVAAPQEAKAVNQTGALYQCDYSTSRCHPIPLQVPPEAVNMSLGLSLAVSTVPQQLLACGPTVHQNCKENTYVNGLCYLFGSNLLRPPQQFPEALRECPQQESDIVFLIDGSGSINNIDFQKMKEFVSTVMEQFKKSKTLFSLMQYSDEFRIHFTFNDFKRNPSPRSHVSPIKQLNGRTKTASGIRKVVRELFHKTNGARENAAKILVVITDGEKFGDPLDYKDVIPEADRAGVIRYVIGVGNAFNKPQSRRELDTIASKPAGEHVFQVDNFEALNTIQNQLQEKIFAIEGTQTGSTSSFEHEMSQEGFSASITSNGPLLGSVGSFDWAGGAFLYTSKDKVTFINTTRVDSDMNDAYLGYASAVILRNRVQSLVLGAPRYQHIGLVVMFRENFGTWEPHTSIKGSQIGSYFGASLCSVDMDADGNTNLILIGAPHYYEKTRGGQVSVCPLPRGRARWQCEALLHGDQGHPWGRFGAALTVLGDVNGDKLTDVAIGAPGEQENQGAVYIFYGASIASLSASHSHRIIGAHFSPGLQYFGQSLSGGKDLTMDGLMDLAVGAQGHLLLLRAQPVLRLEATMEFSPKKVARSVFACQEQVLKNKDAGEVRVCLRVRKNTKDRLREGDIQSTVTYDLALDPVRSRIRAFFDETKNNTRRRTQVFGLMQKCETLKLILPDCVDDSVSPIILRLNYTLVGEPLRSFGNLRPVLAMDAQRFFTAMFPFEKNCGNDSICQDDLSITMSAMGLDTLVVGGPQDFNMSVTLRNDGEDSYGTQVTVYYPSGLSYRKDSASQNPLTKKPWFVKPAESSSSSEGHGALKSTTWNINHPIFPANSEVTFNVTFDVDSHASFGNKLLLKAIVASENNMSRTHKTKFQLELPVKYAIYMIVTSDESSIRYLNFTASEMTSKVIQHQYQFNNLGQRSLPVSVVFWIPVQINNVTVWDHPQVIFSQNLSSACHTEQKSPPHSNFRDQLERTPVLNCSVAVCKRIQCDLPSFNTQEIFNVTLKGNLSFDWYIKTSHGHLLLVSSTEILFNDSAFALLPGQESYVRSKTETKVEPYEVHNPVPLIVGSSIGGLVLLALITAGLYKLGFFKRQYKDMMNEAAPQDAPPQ
T1 sequence (P11835 24-771, chain 2 of 2): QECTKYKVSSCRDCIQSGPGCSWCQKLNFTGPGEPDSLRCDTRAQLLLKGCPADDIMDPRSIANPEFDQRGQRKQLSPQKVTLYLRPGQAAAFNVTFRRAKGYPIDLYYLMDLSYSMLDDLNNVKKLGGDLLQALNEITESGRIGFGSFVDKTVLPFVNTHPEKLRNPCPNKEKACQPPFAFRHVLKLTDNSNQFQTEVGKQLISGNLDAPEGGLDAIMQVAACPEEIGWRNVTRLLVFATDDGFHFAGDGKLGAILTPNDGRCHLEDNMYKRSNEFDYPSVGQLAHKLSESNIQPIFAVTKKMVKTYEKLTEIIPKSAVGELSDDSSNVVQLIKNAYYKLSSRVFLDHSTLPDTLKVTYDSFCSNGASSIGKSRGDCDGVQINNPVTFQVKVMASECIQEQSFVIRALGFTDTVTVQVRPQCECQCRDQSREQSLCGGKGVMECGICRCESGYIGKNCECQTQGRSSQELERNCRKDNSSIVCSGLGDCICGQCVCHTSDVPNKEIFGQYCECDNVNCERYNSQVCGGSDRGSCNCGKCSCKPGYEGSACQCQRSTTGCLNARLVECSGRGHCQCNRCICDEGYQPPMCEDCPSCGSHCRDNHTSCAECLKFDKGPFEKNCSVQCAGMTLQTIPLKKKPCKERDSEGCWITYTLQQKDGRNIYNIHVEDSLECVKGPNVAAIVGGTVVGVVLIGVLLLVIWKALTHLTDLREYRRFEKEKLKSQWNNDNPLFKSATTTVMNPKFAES

| Binder | binding result [1] | Mock MFI [2] [MFI] | Mn^2+ MFI [3] [MFI] | Mock/Mn^2+ Ratio [4] | m24 (Expression relative to IgG4) [5] | KIM127 (Expression relative to IgG4) [6] | m24 (Expression relative to IgG4) [7] | KIM127 (Expression relative to IgG4) [8] |
| --- | --- | --- | --- | --- | --- | --- | --- | --- |
| anti-Mac-1 antibody clone m2396 (antibody, human IgG4, V domains shown) VH: QVQLQESGPGLVKPSETLSLTCTVSGFSLTSNSISWVRQPPGKGLEWMGAIWSGGGTDYNPSLKSRLTISRDTSKSQVFLKMSSLTAADTAIYFCTRGGYPYYFDYWGQGVLVTVSS VL: DIVMTQSPDSLAVSLGERVTINCKSSQSLLYSENQENYLAWYQQKPGQSPKLLIYWASTRQSGVPDRFSGSGSGTDFTLTISSVQAEDLAIYYCQQYYDTPLTFGGGTKLEIK | binds | 108000 | 107000 | 1.01 | 0.88 relative to IgG4 | 1.09 relative to IgG4 | 0.83 relative to IgG4 | 0.81 relative to IgG4 |
| anti-Mac-1 antibody clone DF3M-5 (antibody, human IgG4, V domains shown) VH: EVQLVESGGGLVQPGGSLRLSCAASGFTFGTYDMHWVRQAPGKGLEWVSMISPSGGDTYYADSVKGRFTISRDNSKNTLYLQMNSLRAEDTAVYYCARDSSGDWYAMAYWGQGTLVTVSS VL: DIQMTQSPSSLSASVGDRVTITCRASQSIRRYLAWYQQKPGKAPKLLIYGASNLQSGVPSRFSGSGSGTDFTLTISSLQPEDFATYYCQHSSDTPLTFGQGTKVEIK | binds | 34600 | 52500 | 0.66 | 28.4 relative to IgG4 | 2.49 relative to IgG4 | 4.4 relative to IgG4 | 1.68 relative to IgG4 |
